The values that follow come from US20090202429A1 (TRUSTEES OF COLUMBIA UNIVERSITY IN THE CITY OF NEW YORK, published 2009).

B1: recombinant human VWF-A1 protein with 1309I>V and 1324G>S (ligand)
chain: QEPGGLVVPPTDAPVSPTTLYVEDISEPPLHDFYCSRLLDLVFLLDGSSRLSEAEFEVLKAFVVDMMERLRVSQKWVRVAVVEYHDSSHAYIGLKDRKRPSELRRIASQVKYAGSQVASTSEVLKYTLFQIFSKIDRPEASRIALLLMASQEPQRMSRNFVRYVQGLKKKKVIVIPVGIGPHANLKQIRLIEKQAPENKAFVLSSVDELEQQRDEIVSYLCDLAPEAPPPTLPP
notes: also called doubly mutated protein; not shown: amino-terminal vector-derived tag with 6x histidine
B2: recombinant human VWF-A1 protein with 1309I>V and 1326H>R (ligand)
chain: B1 chain with S87G, H89R
notes: as for B1
B3: recombinant murine VWF-A1 protein, wild type (amino acid residues 1238 to 1471, made in bacteria, His tag) (ligand)
chain: QEPGGLVAPPTDAPVSSTTPYVEDTPEPPLHNFYCSKLLDLVFLLDGSSMLSEAEFEVLKAFVVGMMERLHISQKRIRVAVVEYHDGSRAYLELKARKRPSELRRITSQIKYTGSQVASTSEVLKYTLFQIFGKIDRPEASHITLLLTASQEPPRMARNLVRYVQGLKKKKVIVIPVGIGPHASLKQIRLIEKQAPENKAFLLSGVDELEQRRDEIVSYLCDLAPEAPAPTQPP
modifications: single intra-chain disulfide bond between residues 1272 and 1458
notes: Treated as one molecule; also called M VWF-A1; mouse VWF-A1; not shown: amino-terminal 10 amino acids (including 6x histidine) contributed by the vector pQE9
B4: recombinant murine VWF-A1 protein with 1326R>H (ligand)
chain: B3 chain with R89H
notes: also called mutated murine protein; not shown: amino-terminal vector-derived tag with 6x histidine
B5: recombinant murine VWF-A1 protein with the type 2B mutation I1309V (1309I>V) (ligand)
chain: B3 chain with I72V
notes: also called M VWF-A1 protein containing the type 2B mutation I1309V; not shown: amino-terminal vector-derived tag with 6x histidine
B6: murine platelet glycoprotein Ib alpha (GPIb alpha), on mouse platelets (receptor, UniProt O35930 17-734, looked up)
chain: QHTCSISKVTSLLEVNCENKKLTALPADLPADTGILHLGENQLGTFSTASLVHFTHLTYLYLDRCELTSLQTNGKLIKLENLDLSHNNLKSLPSLGWALPALTTLDVSFNKLGSLSPGVLDGLSQLQELYLQNNDLKSLPPGLLLPTTKLKKLNLANNKLRELPSGLLDGLEDLDTLYLQRNWLRTIPKGFFGTLLLPFVFLHANSWYCDCEILYFRHWLQENANNVYLWKQGVDVKDTTPNVASVRCANLDNAPVYSYPGKGCPTSSGDTDYDDYDDIPDVPATRTEVKFSTNTKVHTTHWSLLAAAPSTSQDSQMISLPPTHKPTKKQSTFIHTQSPGFTTLPETMESNPTFYSLKLNTVLIPSPTTLEPTSTQATPEPNIQPMLTTSTLTTPEHSTTPVPTTTILTTPEHSTIPVPTTAILTTPKPSTIPVPTTATLTTLEPSTTPVPTTATLTTPEPSTTLVPTTATLTTPEHSTTPVPTTATLTTPEHSTTPVPTTATLTTPEPSTTLTNLVSTISPVLTTTLTTPESTPIETILEQFFTTELTLLPTLESTTTIIPEQNSFLNLPEVALVSSDTSESSPFLNSDFCCFLPLGFYVLGLLWLLFASVVLILLLTWTWHVTPHSLDMEQSAALATSTHTTSLEVQRARQVTMPRAWLLFLQGSLPTFRSSLFLWVRPNGRVGPLVAGRRPSALSQGRGQDLLGTVGIRYSGHSL
notes: whole, on cells; also called murine GPIb alpha; murine platelets

Where a chain is given by its changes, count along the chain named. In names and notes the source's numbering stands.

Test [1] has as its target T1, human platelet glycoprotein Ib alpha (GPIb alpha), on human platelets (human, UniProt P07359 17-652).
T1 construct: whole, on cells; also called GPIbα; human GPIb alpha
The experiment in a line: human platelets attached to coated human VWF-A1 against wall shear rate.

For test [2], the target named is T1, human platelet glycoprotein Ib alpha …. Description: interaction times of VWF-A1 coated beads on surface-immobilized platelets, wall shear stress 1 dyn cm^-2. The protocol:
The duration of these interactions are measured by recording images from a Nikon X60 DIC objective (oil immersion) viewed at a frame rate of 235 fps (Speed Vision Technologies, San Diego, Calif.) and subjected to wall shear stresses (WSS) ranging from 0.5 to 3.0 dyn cm⁻². The cellular off-rates are determined by plotting the natural log of the number of VWF-A1 coated microspheres that interacted as a function of time after the initiation of tethering, the slope of the line=−koff (s⁻¹) which is the inverse of the bond lifetime. The force acting on the tether bond was calculated from force balance equations as stated above and koff plotted as a function of these forces.

Test [3] has as its target B6. The experiment in a line: panel B: coated beads on surface-immobilized murine platelets in flow, ln of bead tethering events against time; shear stress 0.5 dyn cm-2; R2 0.96. On the procedure:
(§1) The cellular off-rates are determined by plotting the natural log of the number of VWF-A1 coated microspheres that interacted as a function of time after the initiation of tethering, the slope of the line=−koff (s⁻¹) which is the inverse of the bond lifetime. The force acting on the tether bond was calculated from force balance equations as stated above and koff plotted as a function of these forces.
(§2) The use of beads with one uniform size and shape permits determination of the relationship between wall shear stress and the force directly acting on the GPIb alpha-VWF-A1 tether bond (Fb), a parameter difficult to estimate for discoid-shaped objects such as platelets. […] This antibody was made by immunizing Fischer 344 rats (3-4 months old) with recombinant WT protein. […] Spleens from animals with the highest antibody titers were harvested and splenocytes fused with Sp2/0 mouse myeloma cells (54).

Test [4] concerns the target B6. The experiment in a line: panel B: coated beads on surface-immobilized murine platelets in flow, ln of bead tethering events against time; shear stress 2.0 dyn cm-2; R2 0.95. On the procedure:
as §1, §2

For test [5], the target named is B6. The experiment in a line: panel B: coated beads on surface-immobilized murine platelets in flow, ln of bead tethering events against time; shear stress 3.0 dyn cm-2; R2 0.98. On the procedure: as §1, §2
Test [6] deals with B6. The experiment in a line: cell-based or functional assay.
For test [7], the target named is B6. Description: platelet adhesion to coated recombinant VWF-A1, flow chamber, 800 s^-1.
In test [8] the target is T1, human platelet glycoprotein Ib alpha …. Description: human platelets perfused over coated mutant VWF-A1, wall shear rate 800 s-1; the sheet states that R563H corresponds to R1326H.
In test [9] the target is B6. The experiment in a line: coated beads on surface-immobilized murine platelets in flow, ln of bead tethering events against time; shear stress 0.5 dyn cm-2; R2 0.96. The protocol: as §1, §2
For test [10], the target named is B6. The experiment in a line: coated beads on surface-immobilized murine platelets in flow, ln of bead tethering events against time; shear stress 1.0 dyn cm-2; R2 0.95. On the procedure:
as §1, §2

In test [11] the target is B6. The experiment in a line: coated beads on surface-immobilized murine platelets in flow, ln of bead tethering events against time; shear stress 2.0 dyn cm-2; R2 0.98. On the procedure:
as §1, §2

Test [12] addresses T2, murine plasma VWF with the 1326R>H mutation (from homozygous VWF 1326R>H knock-in mice) (mouse, UniProt Q8CIZ8 764-2813).
T2 construct: Plasma-derived multimeric VWF; also called R1326H mutant mouse VWF; mutant mouse plasma VWF
The experiment in a line: not told at this place.

Broadly, the koff is the rate constant with which the complex falls apart.

T1 sequence (P07359 17-652): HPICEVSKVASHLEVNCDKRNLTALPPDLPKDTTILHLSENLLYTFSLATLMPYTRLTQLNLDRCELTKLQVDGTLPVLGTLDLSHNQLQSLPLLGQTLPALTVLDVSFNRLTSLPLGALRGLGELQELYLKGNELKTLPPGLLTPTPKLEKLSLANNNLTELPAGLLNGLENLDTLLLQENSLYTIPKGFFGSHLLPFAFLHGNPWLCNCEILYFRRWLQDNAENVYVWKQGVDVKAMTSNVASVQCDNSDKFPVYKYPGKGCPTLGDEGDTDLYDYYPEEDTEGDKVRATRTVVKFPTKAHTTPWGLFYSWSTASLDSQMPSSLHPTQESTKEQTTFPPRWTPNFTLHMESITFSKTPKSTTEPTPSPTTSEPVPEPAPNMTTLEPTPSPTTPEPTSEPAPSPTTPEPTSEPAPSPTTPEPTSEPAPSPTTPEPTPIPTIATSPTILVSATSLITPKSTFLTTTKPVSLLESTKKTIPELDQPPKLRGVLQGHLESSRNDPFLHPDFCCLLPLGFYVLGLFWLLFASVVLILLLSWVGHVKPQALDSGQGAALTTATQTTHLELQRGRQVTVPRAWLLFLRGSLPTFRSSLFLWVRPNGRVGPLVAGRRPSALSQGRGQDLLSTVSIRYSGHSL
T2 sequence (Q8CIZ8 other isoform, or with tags, fused parts or gaps limits assumed): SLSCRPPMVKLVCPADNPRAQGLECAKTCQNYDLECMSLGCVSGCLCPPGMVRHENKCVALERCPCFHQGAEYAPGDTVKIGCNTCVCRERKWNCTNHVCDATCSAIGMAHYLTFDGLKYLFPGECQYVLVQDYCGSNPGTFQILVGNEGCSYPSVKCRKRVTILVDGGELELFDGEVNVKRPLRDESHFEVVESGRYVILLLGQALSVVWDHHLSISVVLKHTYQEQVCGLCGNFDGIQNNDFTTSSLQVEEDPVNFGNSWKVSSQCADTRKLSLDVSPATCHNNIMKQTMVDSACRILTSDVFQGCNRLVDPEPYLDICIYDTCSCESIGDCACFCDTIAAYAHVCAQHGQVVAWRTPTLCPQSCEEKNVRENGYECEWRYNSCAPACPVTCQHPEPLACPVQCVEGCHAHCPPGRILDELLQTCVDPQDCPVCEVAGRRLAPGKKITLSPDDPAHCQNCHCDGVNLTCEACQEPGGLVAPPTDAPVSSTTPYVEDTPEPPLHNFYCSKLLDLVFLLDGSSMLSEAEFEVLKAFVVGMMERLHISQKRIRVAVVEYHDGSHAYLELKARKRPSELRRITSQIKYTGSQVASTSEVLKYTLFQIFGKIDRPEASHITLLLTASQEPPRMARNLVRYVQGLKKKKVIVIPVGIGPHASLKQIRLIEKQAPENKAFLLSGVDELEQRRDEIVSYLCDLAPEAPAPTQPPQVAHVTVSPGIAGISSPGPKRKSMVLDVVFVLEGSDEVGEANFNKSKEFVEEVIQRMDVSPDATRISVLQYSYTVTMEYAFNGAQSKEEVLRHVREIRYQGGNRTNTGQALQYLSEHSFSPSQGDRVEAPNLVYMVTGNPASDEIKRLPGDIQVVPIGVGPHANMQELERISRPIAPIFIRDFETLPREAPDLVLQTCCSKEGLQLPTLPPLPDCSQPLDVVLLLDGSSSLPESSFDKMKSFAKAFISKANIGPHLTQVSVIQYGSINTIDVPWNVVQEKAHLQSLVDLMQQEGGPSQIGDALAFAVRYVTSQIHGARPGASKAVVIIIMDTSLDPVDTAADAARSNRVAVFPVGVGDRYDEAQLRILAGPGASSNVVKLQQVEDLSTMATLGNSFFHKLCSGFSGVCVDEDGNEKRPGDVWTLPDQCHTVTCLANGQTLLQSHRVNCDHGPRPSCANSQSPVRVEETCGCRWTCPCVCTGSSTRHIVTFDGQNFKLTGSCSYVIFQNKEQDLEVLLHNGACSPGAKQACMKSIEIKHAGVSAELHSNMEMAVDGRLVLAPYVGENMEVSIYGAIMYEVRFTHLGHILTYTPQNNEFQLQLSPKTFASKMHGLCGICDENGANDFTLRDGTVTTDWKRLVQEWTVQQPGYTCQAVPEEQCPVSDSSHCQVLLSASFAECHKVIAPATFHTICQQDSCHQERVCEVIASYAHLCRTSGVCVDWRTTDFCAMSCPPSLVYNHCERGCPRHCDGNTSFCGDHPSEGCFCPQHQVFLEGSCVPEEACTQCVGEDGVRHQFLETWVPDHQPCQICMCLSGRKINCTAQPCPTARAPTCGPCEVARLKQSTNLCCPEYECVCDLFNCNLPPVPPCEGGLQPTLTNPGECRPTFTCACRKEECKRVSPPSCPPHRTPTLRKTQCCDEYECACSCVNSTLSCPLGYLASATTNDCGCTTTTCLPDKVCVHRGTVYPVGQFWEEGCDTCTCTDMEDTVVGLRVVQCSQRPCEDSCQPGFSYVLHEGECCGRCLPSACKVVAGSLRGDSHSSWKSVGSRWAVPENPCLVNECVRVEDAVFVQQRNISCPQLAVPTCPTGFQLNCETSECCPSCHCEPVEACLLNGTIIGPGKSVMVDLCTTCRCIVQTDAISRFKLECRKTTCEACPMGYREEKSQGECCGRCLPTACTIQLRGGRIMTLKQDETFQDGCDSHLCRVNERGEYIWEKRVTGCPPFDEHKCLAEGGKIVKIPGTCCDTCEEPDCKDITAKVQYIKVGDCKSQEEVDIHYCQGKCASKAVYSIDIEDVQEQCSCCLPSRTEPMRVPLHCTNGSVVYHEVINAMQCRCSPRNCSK

As to B1, the binding result in test [1] was “no binding”.
Regarding B2, in test [2], the “fold reduction in koff against the single mutant 1326H>R” value stood at 2 fold and the koff is 8.5 s⁻¹.
B3: the koff was 5.1 s⁻¹ in test [3], 8.4 s⁻¹ in test [4] and 9.9 s⁻¹ in [5].
Turning to B4, in test [6], the “translocation velocities of murine platelets, fold increase against the WT mouse protein, 800 s^-1” value is about 7 fold. For the same molecule, in test [7], the “fold reduction of platelet adhesion against the WT mouse protein” value was about 5 fold. The binding result in test [8] is reported as “binds”.
B5: the dissociation rate constant (koff) in test [9] worked out at 0.7 s⁻¹; in test [10] it was 0.9 s⁻¹; in test [11], 1.6 s⁻¹.
Take B6: in test [12], the binding result is “binds”.
